Test results taken from article PMC12510010 (The Journal of Biological Chemistry, 2025).
“Also recorded” adds a separate entry of the source. Ends that are not written are not given here.

Key:
[1] = system: CFTR-dependent fluid secretion, organoids; details: cited from earlier work
[2] = target: Cyan- and yellow-tagged GCC catalytic domains (human); test: FRET or BRET; sensitized FRET in HEK 293 cells between Cyan-GCCcat and Yellow-GCCcat, co-expressed with pCDNA3 empty vector, HA-NHERF3, HA-NHERF4, HA-NHERF4 PDZ1 or HA-NHERF4 delPDZ1; STc (1 uM) stimulation
GCC = type: biochemical, human
[3] = system: CFTR-dependent fluid secretion, mouse enteroids; type: cell-based
[4] = system: GCC catalytic domains (Cyan-GCCcat and Yellow-GCCcat); type: cell-based
[5] = system: C-terminal 50 amino acids of MRP4 (MRP4C50); type: binding
MRP4C50 and GCCC50 = type: binding; details: 4 °C
[6] = system: FLAG-GCC in HEK-293 cells; type: cell-based
[7] = system: C-terminal 50 amino acids of GCC (GCCC50); type: binding
GST-NHERF3 [8] = target: T1, GST-NHERF3 (human, UniProt Q5T2W1 1-519); test: far-Western, overlay or dot blot; dot blot: GST-NHERF1-4 and GST on nitrocellulose, GCCC50 overlaid, probed with in-house anti-GCC rabbit polyclonal antibody; saturating NHERF, > 1.2 pmoles; details: both partners purified
T1 construct: also called PDZK1; CAP70
T1 sequence (looked up): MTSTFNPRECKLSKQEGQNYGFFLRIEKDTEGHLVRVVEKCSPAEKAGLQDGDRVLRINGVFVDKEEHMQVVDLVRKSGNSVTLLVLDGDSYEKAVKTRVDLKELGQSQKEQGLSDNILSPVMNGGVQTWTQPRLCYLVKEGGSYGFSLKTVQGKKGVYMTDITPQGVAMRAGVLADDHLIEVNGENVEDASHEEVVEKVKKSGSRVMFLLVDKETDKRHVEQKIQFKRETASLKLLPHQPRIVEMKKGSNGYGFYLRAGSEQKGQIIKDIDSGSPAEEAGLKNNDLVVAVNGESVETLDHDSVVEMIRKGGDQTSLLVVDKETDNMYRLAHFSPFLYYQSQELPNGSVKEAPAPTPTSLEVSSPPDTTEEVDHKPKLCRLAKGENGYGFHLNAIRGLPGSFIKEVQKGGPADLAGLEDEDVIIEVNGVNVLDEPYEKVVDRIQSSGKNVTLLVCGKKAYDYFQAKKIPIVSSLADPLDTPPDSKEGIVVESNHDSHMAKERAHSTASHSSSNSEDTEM

GST-NHERF1 = target: T2, GST-NHERF1 (human, UniProt O14745 1-358); test: as above; details: both partners purified
T2 construct: also called EBP50; GST-tagged NHERF1
T2 sequence (looked up): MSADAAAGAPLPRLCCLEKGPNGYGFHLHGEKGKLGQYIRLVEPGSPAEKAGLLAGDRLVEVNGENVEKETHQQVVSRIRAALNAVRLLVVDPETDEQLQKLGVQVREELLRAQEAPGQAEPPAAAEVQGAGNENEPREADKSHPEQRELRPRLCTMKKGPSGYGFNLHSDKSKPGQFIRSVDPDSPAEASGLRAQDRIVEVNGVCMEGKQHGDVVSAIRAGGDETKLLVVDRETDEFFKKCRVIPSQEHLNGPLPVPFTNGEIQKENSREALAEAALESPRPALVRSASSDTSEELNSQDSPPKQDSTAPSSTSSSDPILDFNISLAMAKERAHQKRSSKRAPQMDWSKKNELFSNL

GST-NHERF2 = target: T3, GST-NHERF2 (human, UniProt Q15599 1-337); test: as above; details: both partners purified
T3 construct: also called E3KARP; GST-tagged NHERF2

GST-NHERF3 [9] = target: T1, GST-NHERF3; test: far-Western, overlay or dot blot; slot blot (macromolecular complex assay): GST-His-S-MRP4-C50 (0, 5 and 20 ug) and GST alone on nitrocellulose, 5 ug GST-NHERF3 overnight at 4 C, then 0.5 ug purified Flag-GCC-C50 at 4 C; detected with a GCC C-terminal specific antibody; details: both partners purified
HA-GCC = HA-GCC (human, UniProt P25092 24-1073); test: cell-based or functional assay
[10] = target: T4, GCC catalytic domain (GCCcat, amino acids 824-954), purified (human, UniProt P25092 824-954); test: HRP-based binding assay on S-beads; 20 ug purified GCCcat immobilised on S-beads, 7.5 uM Biotin N4-195 overnight at 4 C, washed with PBS 0.2% Triton-X-100, streptavidin HRP with TMB, absorbance at 450 nm; control: S-beads without GCCcat; details: both partners purified
T4 construct: also called GCC catalytic subunit
T4 sequence (P25092 824-954): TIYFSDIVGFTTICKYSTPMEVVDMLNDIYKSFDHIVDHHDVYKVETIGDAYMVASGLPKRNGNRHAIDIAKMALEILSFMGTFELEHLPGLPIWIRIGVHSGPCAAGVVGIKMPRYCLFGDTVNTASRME

Molecule: C=C[C@@]1(C)CC(=O)[C@]2(O)[C@@]3(C)[C@@H](O)CCC(C)(C)[C@@H]3[C@H](O)[C@H](OC(C)=O)[C@@]2(C)O1 [Forskolin]
- Fluid secretion response (organoid swelling) [1]: highly robust fluid secretion response

Molecule: Cyan- and yellow-tagged GCC catalytic domains (domain or fragment)
- FRET efficiency of GCCcat oligomerization (control, empty vector) [2]: 0.54

Molecule: H-LERPRFCLL-OH [N4-110, peptide in NHERF4 PDZ1 domain homologous to GCC catalytic domain]
- GCC activity (cGMP) in the presence of single peptide (GCC): did not affect GCC activity

Molecule: H-PRCDRVLHHFLRAALLQEAR-OH [N4-scrambled, scrambled peptide with same amino acid composition as N4-110 and N4-195 combined]
- STc-stimulated secretion with scrambled peptide, high concentrations [3]: some non-specific inhibition was observed at high concentrations
- STc-stimulated secretion with scrambled peptide, lower concentrations [3]: did not reduce STc-stimulated secretion at lower concentrations

Molecule: H-RHAHDVARAQL-OH [N4-195]
- GCC activity (cGMP) in the presence of single peptide (GCC): did not affect GCC activity

Molecule: HA-NHERF4 PDZ1 (domain or fragment)
- FRET efficiency of GCCcat oligomerization with this protein co-expressed [2]: 0.21

Molecule: NHERF3: PDZ adaptor protein; GST-fusion protein or HA-tagged construct
- FRET efficiency of GCCcat oligomerization [4]: 0.51 ± 0.08
- Binding order of NHERFs to MRP4 [5]: NHERF3> NHERF2≥ NHERF1> NHERF4
- Macromolecular complex formation of GCC and MRP4 via NHERF3 (MRP4C50 and GCCC50): GCC could exist in a macromolecular complex with MRP4 via NHERF3
- Binding to GCC with increasing concentrations of STc [6]: not affected
- Binding order of NHERFs to GCC [7]: highest binding affinity for GCC among the NHERF proteins; also recorded: NHERF3> NHERF1> NHERF2> NHERF4

Molecule: AEFSDMIANSLQKRQAAGIRSQKPRRVASYKKGTLEYLQLNTTDKESTYF (domain or fragment, human, UniProt P25092 1024-1073, looked up) [C-terminal 50 amino acids of GCC (GCCC50)]
- binding result (GST-NHERF3 [8]): binds
- binding result (GST-NHERF1): binds
- binding result (GST-NHERF2): binds

Molecule: AEFSDMIANSLQKRQAAGIRSQKPRRVASYKKGTLEYLQLNTTDKESTYF (domain or fragment, human, UniProt P25092 1024-1073, looked up, also called GCCC50) [Flag-GCC-C-terminal 50 aa]
- binding result (GST-NHERF3 [9]): binds

B1: NHERF2: PDZ adaptor protein; purified as GST-fusion protein (protein)
chain: MAAPEPLRPRLCRLVRGEQGYGFHLHGEKGRRGQFIRRVEPGSPAEAAALRAGDRLVEVNGVNVEGETHHQVVQRIKAVEGQTRLLVVDQETDEELRRRQLTCTEEMAQRGLPPAHDPWEPKPDWAHTGSHSSEAGKKDVSGPLRELRPRLCHLRKGPQGYGFNLHSDKSRPGQYIRSVDPGSPAARSGLRAQDRLIEVNGQNVEGLRHAEVVASIKAREDEARLLVVDPETDEHFKRLRVTPTEEHVEGPLPSPVTNGTSPAQLNGGSACSSRSDLPGSDKDTEDGSAWKQDPFQESGLHLSPTAAEAKEKARAMRVNKRAPQMDWNRKREIFSNF
modifications: left off: GST, end not stated, kept
- Binding order of NHERFs to MRP4 [5]: NHERF3> NHERF2≥ NHERF1> NHERF4
- Binding order of NHERFs to GCC [7]: NHERF3> NHERF1> NHERF2> NHERF4

B2: GST-NHERF4 (natural protein, human, UniProt Q86UT5 1-571, looked up)
chain: MVTPSPPGNHSLSLEAPRLHTASDLLGNHSLGLPLITALVGSRDRRGRVFSPVPVPLPTNPTTQHPTRQKLPSTLSGHRVCQAHGEPVLGLCPLLPLFCCPPHPPDPWSLERPRFCLLSKEEGKSFGFHLQQELGRAGHVVCRVDPGTSAQRQGLQEGDRILAVNNDVVEHEDYAVVVRRIRASSPRVLLTVLARHAHDVARAQLGEDAHLCPTLGPGVRPRLCHIVKDEGGFGFSVTHGNQGPFWLVLSTGGAAERAGVPPGARLLEVNGVSVEKFTHNQLTRKLWQSGQQVTLLVAGPEVEEQCRQLGLPLAAPLAEGWALPTKPRCLHLEKGPQGFGFLLREEKGLDGRPGQFLWEVDPGLPAKKAGMQAGDRLVAVAGESVEGLGHEETVSRIQGQGSCVSLTVVDPEADRFFSMVRLSPLLFLENTEAPASPRGSSSASLVETEDPSLEDTSVPSVPLGSRQCFLYPGPGGSYGFRLSCVASGPRLFISQVTPGGSAARAGLQVGDVILEVNGYPVGGQNDLERLQQLPEAEPPLCLKLAARSLRGLEAWIPPGAAEDWALASDLL
- FRET efficiency of GCCcat oligomerization with this protein co-expressed [2]: 0.17
- inhibition of the cGMP formation of HA-GCC immunoprecipitated on HA beads by 200 nM purified GST-NHERF4, relative to the GST-only control (HA-GCC): 38%

Molecule: RHAHDVARAQL (not fully specified (N-terminus); also: biotin label, position not given here, also called N4-Biotin) [Biotin-N4-195 peptide]
- binding result [10]: binds

B3: NHERF1: PDZ adaptor protein; purified as GST-fusion protein (protein)
chain: MSADAAAGAPLPRLCCLEKGPNGYGFHLHGEKGKLGQYIRLVEPGSPAEKAGLLAGDRLVEVNGENVEKETHQQVVSRIRAALNAVRLLVVDPETDEQLQKLGVQVREELLRAQEAPGQAEPPAAAEVQGAGNENEPREADKSHPEQRELRPRLCTMKKGPSGYGFNLHSDKSKPGQFIRSVDPDSPAEASGLRAQDRIVEVNGVCMEGKQHGDVVSAIRAGGDETKLLVVDRETDEFFKKCRVIPSQEHLNGPLPVPFTNGEIQKENSREALAEAALESPRPALVRSASSDTSEELNSQDSPPKQDSTAPSSTSSSDPILDFNISLAMAKERAHQKRSSKRAPQMDWSKKNELFSNL
modifications: left off: GST, end not stated, kept
- Binding order of NHERFs to MRP4 [5]: NHERF3> NHERF2≥ NHERF1> NHERF4
- Binding order of NHERFs to GCC [7]: NHERF3> NHERF1> NHERF2> NHERF4
